Data on nine molecules can be found in patent publication US20240270821A1, “GIP/GLP1/GCG TRI-RECEPTOR AGONISTS AND USES THEREOF” (priority 2023, published 2024).

To fix the notation:
T1: human GIP receptor (human) (UniProt P48546)
T1 sequence (looked up): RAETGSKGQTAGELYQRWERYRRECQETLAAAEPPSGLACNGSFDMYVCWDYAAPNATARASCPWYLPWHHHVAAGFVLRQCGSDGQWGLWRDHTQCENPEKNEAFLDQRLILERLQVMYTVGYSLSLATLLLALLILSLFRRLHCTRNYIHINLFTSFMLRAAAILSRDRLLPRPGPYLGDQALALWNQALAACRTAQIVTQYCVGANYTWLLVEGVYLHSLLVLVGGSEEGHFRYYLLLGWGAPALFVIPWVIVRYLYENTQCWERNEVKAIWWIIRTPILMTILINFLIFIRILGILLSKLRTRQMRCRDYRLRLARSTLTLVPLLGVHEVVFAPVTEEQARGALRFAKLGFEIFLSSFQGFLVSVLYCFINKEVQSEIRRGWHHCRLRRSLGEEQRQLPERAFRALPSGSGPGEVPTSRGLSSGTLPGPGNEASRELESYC

B1: Example 168 (peptide)
chain: YXQGTFTSDFSXXLDKKAQXAFIEWLLEGGPSSGAPPPSGS
modifications: Aib, Orn, αMeL; acylated K; C-terminal amide; synthetic construct; SITE 2: note = 2-Aminoisobutyric Acid; SITE 12: note = L-ornithine; SITE 13: note = alpha-methyl-leucine; SITE 17: note = Lysine is chemically modified through conjugation of the epsilon-amino group of the Lysine side chain with (2-[2-(2-Amino-ethoxy)-ethoxy]-acetyl)-(gamma-Glu)
B2: Example 186 (peptide)
chain: B1 chain with W25Y, G29X, P31H, S41E
modifications: Aib, Orn, αMeL; AEEA2-γGlu-C18 diacid acyl; C-terminal amide; synthetic construct; SITE 2: note = 2-Aminoisobutyric Acid; SITE 12: note = L-ornithine; SITE 13: note = alpha-methyl-leucine; SITE 17: note = Lysine is chemically modified through conjugation of the epsilon-amino group of the Lysine side chain with (2-[2-(2-Amino-ethoxy)-ethoxy]-acetyl)2-(gamma-Glu)
B3: Example 169 (peptide)
chain: B1 chain with P31H, S41E
modifications: acylated Lys, C-terminal amide, non-natural residues; synthetic construct; SITE 2: note = 2-Aminoisobutyric Acid; SITE 12: note = L-ornithine; SITE 13: note = alpha-methyl-leucine; SITE 17: note = Lysine is chemically modified through conjugation of the epsilon-amino group of the Lysine side chain with (2-[2-(2-Amino-ethoxy)-ethoxy]-acetyl)2-(gamma-Glu)
B4: Example 167 (peptide)
chain: B1 chain with W25Y, G29X, A35E, S41T
modifications: non-natural residues (Aib, Orn, αMeL); lipidated K; C-terminal amide; synthetic construct; SITE 2: note = 2-Aminoisobutyric Acid; SITE 12: note = L-ornithine; SITE 13: note = alpha-methyl-leucine; SITE 17: note = Lysine is chemically modified through conjugation of the epsilon-amino group of the Lysine side chain with (2-[2-(2-Amino-ethoxy)-ethoxy]-acetyl)2-(gamma-Glu)
B5: Example 173 (peptide)
chain: B1 chain with P31S
modifications: non-natural residues; lipidated Lys AEEA-γGlu-C18 diacid; C-term amide; synthetic construct; SITE 2: note = 2-Aminoisobutyric Acid; SITE 12: note = L-ornithine; SITE 13: note = alpha-methyl-leucine; SITE 17: note = Lysine is chemically modified through conjugation of the epsilon-amino group of the Lysine side chain with (2-[2-(2-Amino-ethoxy)-ethoxy]-acetyl)-(gamma-Glu)
B6: Example 175 (peptide)
chain: B1 chain with P31T, S41E
modifications: Aib, Orn, αMeL; acylated Lys C18 diacid; C-term amide; synthetic construct; SITE 2: note = 2-Aminoisobutyric Acid; SITE 12: note = L-ornithine; SITE 13: note = alpha-methyl-leucine; SITE 17: note = Lysine is chemically modified through conjugation of the epsilon-amino group of the Lysine side chain with (2-[2-(2-Amino-ethoxy)-ethoxy]-acetyl)-(gamma-Glu)
B7: Example 171 (peptide)
chain: B1 chain with P31H, S41T
modifications: Aib, Orn, αMeL; K acylated AEEA-γGlu-C18 diacid; C-terminal amide; synthetic construct; SITE 2: note = 2-Aminoisobutyric Acid; SITE 12: note = L-ornithine; SITE 13: note = alpha-methyl-leucine; SITE 17: note = Lysine is chemically modified through conjugation of the epsilon-amino group of the Lysine side chain with (2-[2-(2-Amino-ethoxy)-ethoxy]-acetyl)-(gamma-Glu)
B8: Example 181 (peptide)
chain: B1 chain with W25Y, G29X, P31H
modifications: (AEEA)2-γGlu-C18 diacid on Lys; non-natural residues; amide; synthetic construct; SITE 2: note = 2-Aminoisobutyric Acid; SITE 12: note = L-ornithine; SITE 13: note = alpha-methyl-leucine; SITE 17: note = Lysine is chemically modified through conjugation of the epsilon-amino group of the Lysine side chain with (2-[2-(2-Amino-ethoxy)-ethoxy]-acetyl)2-(gamma-Glu)
B9: Example 177 (peptide)
chain: B1 chain with P31T, S41T
modifications: non-natural residues, AEEA-γGlu-C18 diacid acylation, C-terminal amide; synthetic construct; SITE 2: note = 2-Aminoisobutyric Acid; SITE 12: note = L-ornithine; SITE 13: note = alpha-methyl-leucine; SITE 17: note = Lysine is chemically modified through conjugation of the epsilon-amino group of the Lysine side chain with (2-[2-(2-Amino-ethoxy)-ethoxy]-acetyl)-(gamma-Glu)

Positions count from the first letter of the chain named.

Chain of hGLP-1R (P43220 24-463): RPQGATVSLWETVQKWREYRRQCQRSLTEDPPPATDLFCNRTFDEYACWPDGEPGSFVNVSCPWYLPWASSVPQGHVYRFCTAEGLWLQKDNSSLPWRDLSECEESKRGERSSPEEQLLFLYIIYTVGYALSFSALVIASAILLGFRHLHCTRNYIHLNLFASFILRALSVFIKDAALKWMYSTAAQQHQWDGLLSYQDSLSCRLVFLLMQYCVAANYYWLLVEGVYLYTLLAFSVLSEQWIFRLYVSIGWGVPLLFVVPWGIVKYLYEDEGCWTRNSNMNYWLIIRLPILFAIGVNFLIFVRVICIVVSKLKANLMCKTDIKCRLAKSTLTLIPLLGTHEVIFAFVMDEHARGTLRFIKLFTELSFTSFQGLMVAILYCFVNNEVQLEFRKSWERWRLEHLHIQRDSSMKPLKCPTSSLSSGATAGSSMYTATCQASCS

One assay has as its target T1, human GIP receptor (human). The experiment in a line: cell-based or functional assay.
For B1, the Relative cAMP EC50, nM (0.1% casein) was found to be 0.233 nM and the cAMP Rel EC50, nM (1% HSA) worked out at 31.9 nM.
For B2, in that order: 0.107 nM and 18 nM.
For B3, in that order: 0.209 nM and 21.5 nM.
B4 gave a Relative cAMP EC50, nM (0.1% casein) of 0.101 nM and a cAMP Rel EC50, nM (1% HSA) of 24.7 nM.
For B5, in that order: 0.168 nM and 49.9 nM.
For B6, in that order: 0.218 nM and 29.6 nM.
For B7, in that order: 0.2 nM and 27.1 nM.
As to B8, the Relative cAMP EC50, nM (0.1% casein) was found to be 0.133 nM and the cAMP Rel EC50, nM (1% HSA) was 12.7 nM.
For B9, in that order: 0.213 nM and 34.8 nM.

The target of the next assay is human GLP-1R (SNAP-GLP-1R expressed in HEK293 cells) (human) (UniProt P43220). The experiment in a line: cell-based or functional assay.
Chain of human GLP-1R (SNAP-GLP-1R expressed in HEK293 cells) (human) (P43220 24-463): as above
As for B1, the GLP1R Internalization EC50 is 74.8 nM and the Internalization % TOP was 38.7%.
For B2, in that order: 124 nM and 41.1%.
For B3, in that order: 178 nM and 49.4%.
For B4, in that order: 75.9 nM and 44.7%.
Take B5: the GLP1R Internalization EC50 amounted to 97.1 nM and the Internalization % TOP is 38.6%.
In the case of B6, the GLP1R Internalization EC50 was found to be 116 nM and the Internalization % TOP is 49.2%.
For B7, in that order: 61.4 nM and 36.1%.
For B8, in that order: 116 nM and 47.5%.
For B9, in that order: 79.4 nM and 44%.

The next assay addresses hGLP-1R (Homo sapiens, UniProt P43220). Nature of the assay: cell-based or functional assay.
B1 gave a Relative cAMP EC50, nM (0.1% casein) of 2.44 nM and a cAMP Rel EC50, nM (1% HSA) of 281 nM.
For B2, in that order: 5.26 nM and 690 nM.
For B3, in that order: 6.17 nM and 216 nM.
On to B4, for which the Relative cAMP EC50, nM (0.1% casein) is 6.19 nM and the cAMP Rel EC50, nM (1% HSA) was determined as 1300 nM.
For B5, in that order: 2.32 nM and 293 nM.
For B6, in that order: 4 nM and 386 nM.
For B7, in that order: 2.89 nM and 287 nM.
The molecule B8 yielded a Relative cAMP EC50, nM (0.1% casein) of 4.39 nM and a cAMP Rel EC50, nM (1% HSA) of 365 nM.
For B9, in that order: 2.97 nM and 483 nM.

For a further assay, the target named is human glucagon receptor (human) (UniProt P47871). Nature of the assay: cell-based or functional assay.
Chain of human glucagon receptor (human) (P47871 26-477): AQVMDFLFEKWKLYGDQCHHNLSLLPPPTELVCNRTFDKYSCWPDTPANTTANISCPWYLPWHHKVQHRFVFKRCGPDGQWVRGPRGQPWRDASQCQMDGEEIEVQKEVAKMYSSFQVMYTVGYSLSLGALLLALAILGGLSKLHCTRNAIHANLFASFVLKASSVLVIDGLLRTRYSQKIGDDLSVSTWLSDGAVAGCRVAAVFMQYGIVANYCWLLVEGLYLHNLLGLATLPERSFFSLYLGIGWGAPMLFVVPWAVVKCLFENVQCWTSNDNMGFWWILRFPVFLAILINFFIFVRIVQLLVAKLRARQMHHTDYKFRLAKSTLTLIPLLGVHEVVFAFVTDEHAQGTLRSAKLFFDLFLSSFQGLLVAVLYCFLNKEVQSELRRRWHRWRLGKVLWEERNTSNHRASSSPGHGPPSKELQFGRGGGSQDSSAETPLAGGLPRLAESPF
On to B1, for which the Relative cAMP EC50, nM (0.1% casein) worked out at 5.54 nM and the cAMP Rel EC50, nM (1% HSA) amounted to 1270 nM.
Consider B2, for which the Relative cAMP EC50, nM (0.1% casein) amounted to 4.67 nM and the cAMP Rel EC50, nM (1% HSA) came out at 1280 nM.
For B3, in that order: 11.7 nM and 439 nM.
For B4, in that order: 5.05 nM and 938 nM.
In turn, B5 had a Relative cAMP EC50, nM (0.1% casein) of 3.6 nM and a cAMP Rel EC50, nM (1% HSA) of 745 nM.
For B6, in that order: 4.92 nM and 579 nM.
For B7, in that order: 3.86 nM and 502 nM.
For B8, in that order: 6.25 nM and 772 nM.
B9: the Relative cAMP EC50, nM (0.1% casein) was found to be 4.22 nM and the cAMP Rel EC50, nM (1% HSA) came out at 758 nM.
